This is an account of results in patent US20180298097A1.

For one test, the target named is CHO-huTIM3 (UniProt Q8TDQ0). Nature of the test: FACS binding, CHO-huTIM3 transfectant; isotype control. (A flow cytometer gives signals particle by particle.)
The target in test [1] is mouse TIM3 (mouse) (UniProt Q8VIM0). In words: binding to activated mouse T cells; method not described.
Test [2] shares this target. In words: binding to activated mouse T cells, compared with TIM3.18 binding to human TIM-3.

Sequence of mouse TIM3 (mouse) (Q8VIM0 20-281): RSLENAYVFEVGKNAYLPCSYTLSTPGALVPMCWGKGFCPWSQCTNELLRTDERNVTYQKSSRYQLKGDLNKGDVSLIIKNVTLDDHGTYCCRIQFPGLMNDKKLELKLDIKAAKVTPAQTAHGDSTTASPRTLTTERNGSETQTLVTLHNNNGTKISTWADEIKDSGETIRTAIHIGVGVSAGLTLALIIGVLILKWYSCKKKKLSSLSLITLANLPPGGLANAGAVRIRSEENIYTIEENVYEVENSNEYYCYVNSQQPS

As for hIgG2, in the test with CHO-huTIM3, the concentration giving a half-maximal response (EC50) (commonly the concentration giving half of the maximal effect) turned out to be 42.3 mg/mL.

The substance “rat anti-mouse TIM-3 antibody RMT3-23 (Bio-X-Cell)” gave an EC50 in the test with mouse TIM3 (mouse) [1] of 1.7 nM. This substance also came in with a fold weaker EC50 than TIM3.18 on human TIM-3 with mouse TIM3 (mouse) [2] of 17 fold.

Substance hIgG4 returned an EC50 with CHO-huTIM3 of 29.3 mg/mL.
